The values below come from paper PMC3236736, “Jamb and Jamc Are Essential for Vertebrate Myocyte Fusion” (PLoS Biology, 2011).

B1: Jamb extracellular domain fused to rat Cd4 domains 3 and 4 (Jamb-Cd4d3+4-6H; Jamb-Cd4d3+4-bio) (domain or fragment, zebrafish, UniProt A0A0R4IGV4 19-226, looked up)
chain: VTVSSRNPKVEVHEFSDAELSCEFKTEKDTNPRIEWKRKDKEKDVSFVYYGERFVGPFQDRADIEGATVRLRRVTQADAGEYRCEVSAPSDSISLGETNVTLRVLVPPQTPSCDVPSSALTGSQVELRCRDRHSIPPAVYTWYKDNRALPIRHPNATYTVNEFTGVLIPQSHYNPGTVCQHCMYHPNYHIPNTQLTTTFQTHDLNVAA
notes: Jamb (official symbol jam2a), zebrafish, Entrez Gene 100005261; Two forms with the same ectodomain were made; They are written as one molecule because the protein stood against itself in the homophilic test; also called Jam2a; zebrafish JAM-B orthologue; source: expressed as a soluble fusion protein, purified; not shown: rat Cd4 domains 3 and 4, C-terminal, kept; His6, C-terminal, kept
B2: Jamc extracellular domain fused to rat Cd4 domains 3 and 4 (Jamc-Cd4d3+4-6H; Jamc-Cd4d3+4-bio) (domain or fragment, zebrafish, UniProt A3KPA0 24-235, looked up)
chain: VLLKSTNSKPWVNEFESIELSCMIESITTTKPRIEWKKIKNGDPSYVYFDNQISGDLERRAKIREPATLVILNATRSDSADYRCEVTAPNDQKSFDEILISLTVRVKPVVPRCSVPKSIPVGKPAELHCLEDEGYPKSQYQWFRNKEEIPLDPKSSPKFFNSTYTLDGEMGTLKFSAVRKEDAGEYYCRAKNEAGISECGPQMMEVYDINIA
notes: Jamc (official symbol jam3b), zebrafish, Entrez Gene 569217; Two forms with the same ectodomain were made; They are written as one molecule because the protein stood against itself in the homophilic test; also called Jam3b; zebrafish JAM-C orthologue; source: expressed as a soluble fusion protein, purified; not shown: rat Cd4 domains 3 and 4, C-terminal, kept; His6, C-terminal, kept

For test [1], the target named is B2. As to the kind of experiment: SPR; equilibrium binding analysis with soluble recombinant extracellular domains; Jamc analyte; essentially as in ref. 33. To be noted: both partners purified. Background: In SPR one partner is held on a chip, and binding of the other changes the refractive index at the surface.
Test [2] deals with B1. In words: SPR; dissociation phase averaged over three concentrations of purified Jamc-Cd4d3+4-6H or Jamb-Cd4d3+4-6H analyte, fitted to a first-order decay; homophilic and heterophilic interactions. To be noted: both partners purified.

Take B1: the Kd (in general, the constant that tells how readily two partners part at equilibrium) in test [1] is approximately 4.7 µM.

B2: the stoichiometry N – broadly, a count of units in the complex or per binding partner – in test [2] was 1.
